What was measured:
[1] = biological target: Streptomyces phage φBT1 integrase (Streptomyces phage φBT1)
[2] = biological target: Gp3 of Streptomyces phage φBT1 (recombination directionality factor, excisionase) (Streptomyces phage φBT1); assay: cross-linking; purified proteins, alone or mixed, incubated with or without dimethyl suberimidate (DMS), analysed by SDS-PAGE
[3] = biological target: Streptomyces phage φBT1 integrase (Streptomyces phage φBT1); assay: as above

Substance | quantitative in vitro recombination (blue-white screen, white colonies): excision between attL and attR with integrase and Gp3 [1] | quantitative in vitro recombination (blue-white screen, white colonies): integration between attB and attP in the presence of Gp3 (more than 90% without Gp3) [1] | stoichiometry N [2] | stoichiometry N [3]
Gp3 of Streptomyces phage φBT1 (recombination directionality factor, excisionase) (natural protein) | 89% | 2% | 2 | –
Streptomyces phage φBT1 integrase (enzyme) | – | – | – | 2

From PMC3836970
